Earlier results as cited in paper PMC6842113.

Molecular target: PSD-95 PDZ3-SH3-GK (Homo sapiens) (UniProt P78352)

- Kd: 200 nM
Substance: SynGAP C-terminus (from UniProt Q9QUH6)
